Reference: patent US20090148907A1, “NOVEL FRUCTOFURANOSIDASE ACTIVITY FOR OBTAINING THE PREBIOTIC OLIGOSACCHARIDE 6-KESTOSE” (CONSEJO SUPERIOR DE INVESTIGACIONES CIENTIFICAS, priority 2005, published 2009)

Legend:
Format in all cases: biochemical
[1] = Fructofuranosidase activity at different pH and temperatures; settings: solution of pure protein, on sucrose
Method: The fructofuranosidase activity was assayed at different pH and temperatures. Maximum activity levels were obtained in a pH range comprised, between 5 and 6 units at 50° C. and at a temperature of 40 and 55° C.
FIG. 3 indicates the enzymatic activity in function of the pH and of the temperature, showing the corresponding maximums. The assays were performed on sucrose using a solution of pure protein. 100% corresponds to an activity of 5.59 U/ml. FIG. 3A: fructofuranosidase activity was determined at different pHs (3-9 pH units), an assay temperature of 50° C. and sodium citrate, sodium phosphate and HCl-Tris buffer (all of them 100 mM) for the pH range of 3-4.5, 5.0-7.5 and 8.0-9.0, respectively. FIG. 3B: the temperature assay (30-70° C.) was performed in 50 mM sodium phosphate pH 5.5.

[2] = Fructofuranosidase activity of fractions during purification; settings: eluted at 0.2 M of salt, DEAE-Sephacel pH 5
Method: The cell free fraction was obtained by centrifugation (F-0) of a culture of S. occidentalis ATCC26077 grown at 29° C. and 235 rpm. Fructofuranosidase activity was assayed in the latter, determining the glucose release on different substrates. A colorimetric assay and the standard methodology were used. The released glucose was quantified using the glucose oxidase-peroxidase coupled reaction: 0.4 ml of the solution to be determined was mixed with 0.1 ml of A:B (20:1) solution (A: 0.85 U/ml glucose oxidase, 0.40 U/ml peroxidase in sodium phosphate buffer pH 5; B: 0.6% O-dianisidine). It was incubated for 30 minutes at 37° C. and spectrophotometrically quantified at 450 nm. A standard glucose curve (0 to 100 μg/ml) was used. The fructofuranosidase activity unit is defined in μmol/ml min of glucose determined in the described conditions.
For the purification of the enzyme, 2 liters of extracellular fraction of S. occidentalis, with a fructofuranosidase activity of 0.58 U/ml, were used to begin. The following method was used:
1) Concentration of the extracellular fraction using a tangential filtration system (30 kDa fitter) followed by dialysis against 20 mM HCl-Tris pH 7 (buffer A) for 2 hours at a temperature of 4° C. […]
3) Ion exchange chromatography to pH 5. […] The fructofuranosidase activity determined as previously indicated eluted at 0.2 M of salt and was 0.33 U (F-3).

[3] = target: T1, fructofuranosidase of S. occidentalis (pure enzyme F-3) (Schwanniomyces occidentalis, UniProt P24133); assay: Transfructosidase (transglycosylation) activity of pure enzyme F-3 on sucrose, HPLC; settings: after 144 hours at 50° C, high sucrose concentration
T1 construct: the enzyme object of the invention is extracellularly released; endogenous in cells; host or cells: Schwanniomyces occidentalis culture supernatant; concentrated (F-1), then DEAE-Sephacel at pH 7 (F-2) and at pH 5 (F-3)
T1 sequence (P24133 whole entry, looked up): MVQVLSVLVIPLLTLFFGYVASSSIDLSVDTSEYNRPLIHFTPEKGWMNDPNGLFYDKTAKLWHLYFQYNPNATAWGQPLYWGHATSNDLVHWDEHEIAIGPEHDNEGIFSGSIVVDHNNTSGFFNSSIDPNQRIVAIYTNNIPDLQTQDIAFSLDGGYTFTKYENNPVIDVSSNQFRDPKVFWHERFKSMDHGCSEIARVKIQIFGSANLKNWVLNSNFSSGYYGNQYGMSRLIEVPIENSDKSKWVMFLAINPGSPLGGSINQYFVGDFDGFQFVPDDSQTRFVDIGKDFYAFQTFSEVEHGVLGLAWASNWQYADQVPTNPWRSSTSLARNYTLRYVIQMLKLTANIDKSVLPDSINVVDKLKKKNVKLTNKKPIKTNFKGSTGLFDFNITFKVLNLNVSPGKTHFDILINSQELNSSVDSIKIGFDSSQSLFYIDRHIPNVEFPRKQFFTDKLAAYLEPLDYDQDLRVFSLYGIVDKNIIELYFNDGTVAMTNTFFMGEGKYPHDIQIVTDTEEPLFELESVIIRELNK
Method: The transglycosylation activity of the pure enzyme (fraction F-3) was assayed. A reaction was prepared using a high concentration of sucrose (510 g/l) and a final enzymatic activity in the reaction mixture of approximately 0.5 U/ml. […] It is seen that the profile of the obtained products is very similar in both cases, specifically the 6-kestose/1-kestose ratio that was obtained was 3.3.
After 144 hours of reaction, 42.6 g/l of FOS were obtained. The total percentage (w/w) of fructooligosaccharides was 8.4% this value being with respect to the total weight of carbohydrates in the medium.
A high concentration solution of sucrose ([…]) in 0.2 M sodium acetate buffer pH 5.6 was prepared. The fructofuranosidase was added until a final concentration in the reaction mixture of 0.5 U/ml (one unit U is the enzymatic activity corresponding to releasing a micromole of reducing sugars per minute, using 100 g/l of sucrose as substrate, in 0.2 M sodium acetate buffer pH 5.6, at 50° C.). The reaction mixture was incubated for 144 hours at 50° C., with orbital stirring at 700 rpm. Aliquots were extracted at different times, incubated for 5 minutes at 80° C. to inactivate the enzyme, diluted 1:2 (v/v) with water centrifuged for 5 minutes at 6000 rpm in an eppendorf tube with a 0.45 μm filter and analyzed by HPLC liquid chromatography. The profile of the products formed is seen in FIG. 7. Two trisaccharides were obtained: a majority trisaccharide, identified as 6-kestose, and another minority trisaccharide, identified as 1-kestose. At the final reaction time (144 h), the composition of the system was: 12.7% fructose, 14.80/glucose. 64.1% sucrose, 2.4% 1-kestose and 5.9% 6-kestose).

B1: F-3: purified fructofuranosidase of S. occidentalis with transfructosidase activity, SEQ. ID. NO: 1, 535 amino acids (protein, listed as Debaryomyces occidentalis)
chain: MVQVLSVLVIPLLTLFFGYVASSSIDLSVDTSEYNRPLIHFTPEKGWMNDPNGLFYDKTAKLWHLYFQYNPNATAWGQPLYWGHATSNDLVHWDEHEIAIGPEHDNEGIFSGSIVVDHNNTSGFFNSSIDPNQRIVAIYTNNIPDLQTQDIAFSLDGGYTFTKYENNPVIDVSSNQFRDPKVFWHEDSNQWIMVVLKSQEYKIQIFGSANLKNWVLNSNFSSGYYGNQYECPGLIEVPIENSDKSKWVMFLAINPGSPLGGSINQYFVGDFDGFQFVPDDSQTRFVDIGKDFYAFQTFSEVEHGVLGLAWASNWQYADQVPTNPWRSSTSLARNYTLRYVHTNAETKQLTLIQNPVLPDSINVVDKLKKKNVKLTNKKPIKTNFKGSTGLFDFNITFKVLNLNVSPGKTHFDILINSQELNSSVDSIKIGFDSSQSSFYIDRHIPNVEFPRKQFFTDKLAAYLEPLDYDQDLRVFSLYGIVDKNIIELYFNDGTVAMTNTFFMGEGKYPHDIQIVTDTEEPLFELESVIIRELNK
- Activity corresponding to 100% in FIG. 3 [1]: 5.59 U/ml
- Fructofuranosidase activity [2]: 0.33 U
- Transfructosidase activity retained (in words) [3]: still maintains transfructosidase activity
